From publication PMC5141367, “Structural decoding of netrin-4 reveals a regulatory function towards mature basement membranes” (Nature Communications, 2016)

B1: Net4 lacking the C-terminal domain (Net4-ΔC) (domain or fragment, Mus musculus, UniProt Q9JI33 20-462, looked up)
chain: LNGVAGANSRCEKACNPRMGNLALGRKLRADTMCGQNATELFCFYSENADLTCRQPKCDKCNAAHSHLAHPPSAMADSSFRFPRTWWQSAEDVHREKIQLDLEAEFYFTHLIMVFKSPRPAAMVLDRSQDFGKTWKPYKYFATNCSATFGLEDDVVKKGAICTSRYSNPFPCTGGEVIFRALSPPYDIENPYSAKVQEQLKITNLRVRLLKRQSCPCQINDLNAKPHHFMHYAVYDFIVKGSCFCNGHADQCLPVEGFRPIKAPGAFHVVHGRCMCKHNTAGSHCQHCAPLYNDRPWEAADGRTGAPNECRTCKCNGHADTCHFDVNVWEASGNRSGGVCNNCQHNTEGQHCQRCKPGFYRDLRRPFSAPDACKACSCHPVGSAILPFSSVTFCDPSNGDCPCKPGVAGPHCDRCMVGYWGFGDYGCRPCDCAGSCDPLTGDC
notes: lacks domain C); Two alternative constructs were cloned: one with an N-terminal His8 tag, one with an N-terminal double Strep II tag (not both on one chain); the tag was removed by thrombin; also called netrin-4; wild-type Net4; source: HEK293, stably transfected, purified (streptactin-sepharose or nickel TALON beads, thrombin digestion, SEC); not shown: double Strep II, N-terminal, cleaved; …
B2: full-length Net4 (Net4-FL) (natural protein, Mus musculus, UniProt Q9JI33 20-628, looked up)
chain: LNGVAGANSRCEKACNPRMGNLALGRKLRADTMCGQNATELFCFYSENADLTCRQPKCDKCNAAHSHLAHPPSAMADSSFRFPRTWWQSAEDVHREKIQLDLEAEFYFTHLIMVFKSPRPAAMVLDRSQDFGKTWKPYKYFATNCSATFGLEDDVVKKGAICTSRYSNPFPCTGGEVIFRALSPPYDIENPYSAKVQEQLKITNLRVRLLKRQSCPCQINDLNAKPHHFMHYAVYDFIVKGSCFCNGHADQCLPVEGFRPIKAPGAFHVVHGRCMCKHNTAGSHCQHCAPLYNDRPWEAADGRTGAPNECRTCKCNGHADTCHFDVNVWEASGNRSGGVCNNCQHNTEGQHCQRCKPGFYRDLRRPFSAPDACKACSCHPVGSAILPFSSVTFCDPSNGDCPCKPGVAGPHCDRCMVGYWGFGDYGCRPCDCAGSCDPLTGDCISSNADVDWYHEVPAFHSMHNKSEPSWEWEDEQGFSALRHSGKCECKEQVLGNPKAFCGMKYSYVLKIKILSAHDKGSHAEVNVKIKKVLKSTKLKILRGKRTLYPESWTNRGCTCPILNPGLEYLVAGHEDVRTGKLIVNMKSFVQHWKPALGRRVMHILKRDCV
notes: also called netrin-4; wild-type Net4; source: HEK293, stably transfected, purified (streptactin-sepharose, thrombin digestion, SEC); not shown: double Strep II, N-terminal, cleaved
B3: N-terminal laminin fragment α1LN-LEa1-4 (domain or fragment, Homo sapiens, UniProt P25391 18-453, looked up)
chain: RQRGLFPAILNLASNAHISTNATCGEKGPEMFCKLVEHVPGRPVRNPQCRICDGNSANPRERHPISHAIDGTNNWWQSPSIQNGREYHWVTITLDLRQVFQVAYVIIKAANAPRPGNWILERSLDGTTFSPWQYYAVSDSECLSRYNITPRRGPPTYRADDEVICTSYYSRLVPLEHGEIHTSLINGRPSADDLSPKLLEFTSARYIRLRLQRIRTLNADLMTLSHREPKELDPIVTRRYYYSIKDISVGGMCICYGHASSCPWDETTKKLQCQCEHNTCGESCNRCCPGYHQQPWRPGTVSSGNTCEACNCHNKAKDCYYDESVAKQKKSLNTAGQFRGGGVCINCLQNTMGINCETCIDGYYRPHKVSPYEDEPCRPCNCDPVGSLSSVCIKDDLHSDLHNGKQPGQCPCKEGYTGEKCDRCQLGYKDYPTCVS
notes: also called laminin α1; source: HEK293, stably transfected, purified (streptactin-sepharose, thrombin digestion, SEC); not shown: double Strep II, N-terminal, cleaved
B4: laminin γ1 short arm fragment (γ1LN-LEa1-4) (domain or fragment, Mus musculus, UniProt P02468 34-492, looked up)
chain: AMDECADEGGRPQRCMPEFVNAAFNVTVVATNTCGTPPEEYCVQTGVTGVTKSCHLCDAGQQHLQHGAAFLTDYNNQADTTWWQSQTMLAGVQYPNSINLTLHLGKAFDITYVRLKFHTSRPESFAIYKRTREDGPWIPYQYYSGSCENTYSKANRGFIRTGGDEQQALCTDEFSDISPLTGGNVAFSTLEGRPSAYNFDNSPVLQEWVTATDIRVTLNRLNTFGDEVFNEPKVLKSYYYAISDFAVGGRCKCNGHASECVKNEFDKLMCNCKHNTYGVDCEKCLPFFNDRPWRRATAESASESLPCDCNGRSQECYFDPELYRSTGHGGHCTNCRDNTDGAKCERCRENFFRLGNTEACSPCHCSPVGSLSTQCDSYGRCSCKPGVMGDKCDRCQPGFHSLTEAGCRPCSCDLRGSTDECNVETGRCVCKDNVEGFNCERCKPGFFNLESSNPKGCTP
notes: also called Lmγ1; N-terminal laminin γ1 fragment; source: HEK293, stably transfected, purified (streptactin-sepharose, thrombin digestion, SEC); not shown: double Strep II, N-terminal, cleaved
B5: Net4-ΔC^ΔKAPGA (domain or fragment, Mus musculus, UniProt Q9JI33 20-462, looked up)
chain: LNGVAGANSRCEKACNPRMGNLALGRKLRADTMCGQNATELFCFYSENADLTCRQPKCDKCNAAHSHLAHPPSAMADSSFRFPRTWWQSAEDVHREKIQLDLEAEFYFTHLIMVFKSPRPAAMVLDRSQDFGKTWKPYKYFATNCSATFGLEDDVVKKGAICTSRYSNPFPCTGGEVIFRALSPPYDIENPYSAKVQEQLKITNLRVRLLKRQSCPCQINDLNAKPHHFMHYAVYDFIVKGSCFCNGHADQCLPVEGFRPIFHVVHGRCMCKHNTAGSHCQHCAPLYNDRPWEAADGRTGAPNECRTCKCNGHADTCHFDVNVWEASGNRSGGVCNNCQHNTEGQHCQRCKPGFYRDLRRPFSAPDACKACSCHPVGSAILPFSSVTFCDPSNGDCPCKPGVAGPHCDRCMVGYWGFGDYGCRPCDCAGSCDPLTGDC
notes: the limits of the deletion are printed for the combined mutant; probably made like its parent m1; also called Net4 mutant in which the specific loop b (KAPGA) within LE1 was deleted

How the values were obtained:
[1] = molecular target: laminin γ1 (UniProt P02468); conditions: cited from earlier work
[2] = molecular target: laminin γ1 short arm fragment (γ1LN-LEa1-4) (Mus musculus) (UniProt P02468); experiment: not stated; binding assay of Supplementary Fig. 6c; method not given
[3] = molecular target: T1, laminin γ1 short arm fragment (γ1LN-LEa1-4) (Mus musculus, UniProt P02468 34-492); experiment: MST
T1 chain: B4 chain

[4] = molecular target: B4; experiment: rotary-shadowing electron microscopy; images of the Net4-ΔC-γ1LN-LEa1-4 complex; conditions: both partners purified
[5] = molecular target: B4; experiment: MST; 2 nM labelled γ1LN-LEa1-4; Net4 0.08-1,000 nM, Net4 mutants 0.45-4,000 nM; 50 mM Tris/HCl pH 7.4, 150 mM NaCl, 2 mM CaCl2, 3% BSA; NanoTemper Monolith NT.115; conditions: both partners purified
[6] = molecular target: B4; experiment: cross-linking; increasing crosslinker concentration; Supplementary Fig. 5a; conditions: both partners purified
[7] = molecular target: the molecule itself; experiment: as above
[8] = molecular target: B4; experiment: SEC; analytical size-exclusion chromatography of single proteins and of mixtures; conditions: both partners purified
[9] = molecular target: T2, N-terminal laminin fragment β1LN-LEa1-4 (Homo sapiens, UniProt P07942 31-509); experiment: as above; conditions: both partners purified
T2 construct: also called laminin β1; Lmβ1; source: HEK293, stably transfected, purified (streptactin-sepharose, thrombin digestion, SEC); not shown: double Strep II, N-terminal, cleaved

[10] = molecular target: B2; experiment: MST; 2 nM labelled γ1LN-LEa1-4; Net4 0.08-1,000 nM, Net4 mutants 0.45-4,000 nM; 50 mM Tris/HCl pH 7.4, 150 mM NaCl, 2 mM CaCl2, 3% BSA; NanoTemper Monolith NT.115; conditions: both partners purified
[11] = molecular target: B4; experiment: not stated; binding assays of Supplementary Fig. 6a,b; methods not shown (the author contributions name SPR measurements); conditions: both partners purified

T2 sequence (P07942 31-509): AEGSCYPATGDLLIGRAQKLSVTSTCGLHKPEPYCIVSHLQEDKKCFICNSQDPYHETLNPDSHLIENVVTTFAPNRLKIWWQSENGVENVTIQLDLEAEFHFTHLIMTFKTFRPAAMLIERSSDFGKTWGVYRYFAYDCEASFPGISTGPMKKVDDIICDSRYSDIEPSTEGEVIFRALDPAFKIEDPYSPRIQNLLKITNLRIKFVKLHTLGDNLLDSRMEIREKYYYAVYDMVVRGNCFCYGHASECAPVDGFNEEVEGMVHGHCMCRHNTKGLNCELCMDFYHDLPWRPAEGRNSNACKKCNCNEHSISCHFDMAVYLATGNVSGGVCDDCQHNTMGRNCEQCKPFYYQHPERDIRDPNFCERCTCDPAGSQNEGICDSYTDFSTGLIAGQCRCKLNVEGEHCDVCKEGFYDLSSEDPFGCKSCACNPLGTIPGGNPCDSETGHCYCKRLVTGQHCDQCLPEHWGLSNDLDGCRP

laminin β1 (from UniProt P02469)
Kd [1]: 5000 nM

Net4-ΔC^E195A,R199A (from UniProt Q9JI33 20-462) (domain or fragment)
Kd [2]: 66 nM

B1
Kd [3]: 2.29 nM | stoichiometry N [4]: 1 | Kd [5]: ~2 nM

B2
Kd [3]: 2.26 nM | stoichiometry N [6]: 1 | stoichiometry N [7]: 2

B3
binding result [8]: binds

B4
binding result [9]: binds | Kd [10]: ~2 nM

B5
Kd [11]: ~50 nM
